The NTF2 design screens of Basanta et al. (2020)

Assay: protease stability score; higher = more stable; yeast display proteolysis, trypsin and chymotrypsin;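 note: relative to predicted unfolded state with 0 unfolded-like and 1 meaning tenfold more protease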

Row | Sequence | protease stability score
1 | SEKRQEERKMLELIEHYWQTGDFELLRELADPDTKVRIGDKERHGWEAYIEILRTLGADHMSIRDQKTVGDYVILHIDIRIGDKRYETTLVSEKFDGRWILRRSEFR | 1.16
2 | SEKTHEFQKLYHEWIRVEWTGDFHMLSHMADPNTRVELIINGRTVERIGREDMIELVRRLKHEIRFHDFDIKRVRIQGEKIYADTHEDGEINGQRRETDAKLELDVYNGKIESVFWYIE | 1.13
3 | SELDDHMRRIMDHYIEDLVTGNEDRQQKLADPNVRVIIWQGDKIYHLHGREEWVKALRELRWHEIHVRHREPVNGKTHVDTEVDGEINGRRHRHRVHLTLLVVDGKVKLVEFDHH | 1.37
4 | SELDEDFRHMVELFAFHMLTGDEHEVHRLADPHYRYEQGDKNIIGRDEWIRFLREIRIHVNSIHIRRLDYVGDKIEADVHFDVLIHVNGVRIRHRHDSHLFWEKVDGRWVLHSVRVL | 1.36
5 | SELDEDSEEAVREDIETIKTGNEEMFKRLVDPNARTDFNGKELVGREAVLHFWTMILKTMGVDHVHIEEVRIFNGRLIMHHTIHVGDKFIEVILFSEKFNGKWQIKEIEIR | 0.053
6 | SELDEEAEEALRITFEMLITGDWEFLNHYVDPDAKLNIGDKEHHGRETVITFVKEISRKLGIKVIRFRHIEVQVFNGKVDIHIHGVVEWNGRREEFRIIIILHKIDGQWHIREMRVHIR | 2.4
7 | SELDELANFANELFWELHKTGDEEIFNHYADPHMRYEIDGRDIHGMEVFTKHLRRIKNLTLHSIHVHDEKSQGEKFIFDGNVVGRVNGKEFDTRVRLELTVINGRVHSIILRRH | 1.41
8 | SELDENVKRITDIFIHAILTGDEHKIRKLLDPHVRTVVDGVEYIGREWFAEWVKHMRIDDHRIKTIEIRNQGDYAHVHIHGRTLGEYDGKHSTVNMFIHMHFVKFDGKWFVHELNVHII | 2.06
9 | SELDEYMHRMMKWILEEEITGDEERFLHLADPHVRSRIDVGEWKWDHHGRDAIRVYREQVDHITHVKVSNFHVQGDKAISDVHEEVRVGDKHVIRRIEIIVIVIDGKVHSIELEIK | 0.357
10 | SELDHAAEHLYRLFYHLERTGDEETLMDNMDPNARNEQGEFEYHGREFIEWVSEHLGINVIRVKRVDLRVINGRMILDIDYRVHIGDKTIQRHIHVVINKVNGKWIVEKLRIEWR | 0.79
11 | SELDHLTKHAMELWLRLLETGDEHSEHRLADPNVRLDVNGKELHGMEEILEHLSRLGIKVFRVKDTELVGNKLHLIGELEFDGKRVETHVIAWKINGRWHLHRREIR | 1.57
12 | SELDKVAEEHMEHFFHLYRTGDEDMTHELLDPHVRVSINGVETVGRELATKEVIDWVRKVKNVKTHIHHIEKINGKVIVDTRIHINGVDFRLVIWADKVNGRWHIREMEIR | 1.36
13 | SELDRDVEHVLKELAKAMRTGDEEMLHDMIDPNARMIVDGKNLHGREQIWKFFTELRVDSRRYEVKHSEIQGNKLEIDGRTRIIIIVNGREIDRETHTEIILLKINGKWLMHSVRIE | 1.07
14 | SELDTLVEEVAEIIVKYLITGDEDSLLKMLDPNMRTDINGREIHGREVTHEFLRQEKERLGVSRIQMRLESFRVQGDKIIIHGTLHYNGKDFEVIVIIIVWNGRIREIRIEIR | 1.4
15 | SELEDATEFAIKVLLEVLRTGDWLEFEKMVDPNVRSSINGVELHGRRRLSHEILREWMELGIKHLDVHLKHKELQGDKLILIVELRLDVNGREIRRETELILLKVDGRWLLTEVRVK | 1.58
16 | SELEDMLRHMFDLFWRAFRTGDWELLMRLADPHVRLEVRFNGRHIEHVGRESFVESVETLRHEWRIDHLRINDEKYQGDYVNLNTRMDVFFDGVKVRTDTRVHSVVVNGRLREFSIEFG | 0.495
17 | SELEEAVRRWLELFFKLFWTGNEEILTDLFDPNVRLEVGDKVFIGREEVSRHLREFRERVKNLRMHVHDVKLINGVVHMDIEIDINGVRTKAHTDWIVIDGRHHSQIIKIN | 0.525
18 | SELEEDMRYLLKLILDAFRTGDEHTFARLFDPHVRIEIGDKEFVGREFVLHHAHQLRIKRSHFNVEHFEWQGNKIRMHGILHFHGRFDGQERESYVDIHIVIEKVDGRWLVKSLHIH | 1.63
19 | SELEEEAKELIEEWLHSFSTGDEKKLYELADPDDRLLFNGVEFVGREEMLKNFRDLYRKWGVTRVEADVKRIHVFNGVAHSDTVSHYNGVRVKTHLVIEKINGRWRVSSLHIH | 1.42
20 | SELEEEALHLMELYLKSVMTGDEESIRRLADPNVRFEVDINGKKLELHGWKEETKFWREIWVRELRVRDKDAIGNKVHSVVEINVDVNGKEIRRESEEHYIIVDGRLHIISFRVN | 1.27
21 | SELEEEARKMNERFWRDMITGDFDSLVRLADPHVKVLYGDKFSIGREVFEEHLRHLGIKVSHLRNLDVQGDKVIVHGESKFNGKTFELEIIMRKFDGRWFIETVNLQ | 0.973
22 | SELEEEMEKWARDFLRLWFTGDEETTERLFDPHARMDVNGVQNHGWEMMSRQLTHYINHIRIRDLEVETISQQGDKIYVHGQENVEIGDKHLRYHTHIELVIVNGRVQEVRIEVK | 0.993
23 | SELEEENRQALKESLREWETGDEKRLHENADPNARLQYGDKHYHGRENVSHMLTHIIEKFGIDHMRVRDFRVQGEKVETHVELRVGDKHLHIRIITMKVNGKWLFHSVHMHIE | 0.997
24 | SELEEESHKFFREFYRVIETGDEDRLEELADPHVRNDFNGVLIHGREEMRKMREKVHKQLGVTRVEVTVRDMKIQGDKAISHGVFHIGEKDFIVTLISEKINGRWILHSIEVR | 1.2
25 | SELEEEVRRAVTFWLEALMTGDEESVSHMLDPNVRVDIDGRDLHGREKMIETMKHIRIKHIELTSIKVINGRAHIHTKVDGEFNGRRDTLDVEIIITKINGKWVVKEVNVK | 1.7
